According to article PMC4685450, “Crystal Structure of Human SSRP1 Middle Domain Reveals a Role in DNA Binding”:

B1: 30-bp linker dsDNA (dsDNA)
DNA 1: TCCAGTGCCGGTGTCGCTTGGGTCCCGAGG
DNA 2: CCTCGGGACCCAAGCGACACCGGCACTGGA
B2: GC-rich dsDNA (dsDNA)
DNA 1: GCGGCCCGCGCCCGCCGCCCCGCCGCGGCC
DNA 2: GGCCGCGGCGGGGCGGCGGGCGCGGGCCGC
B3: AT-rich dsDNA (dsDNA)
DNA 1: ATAATTTATATTTATTATTTTATTATAATT
DNA 2: AATTATAATAAAATAATAAATATAAATTAT

Legend:
Conditions in all cases: protein: recombinant; tags: N-terminal 6xHis; blunt
SSRP1-N = SSRP1-N (Homo sapiens, UniProt Q08945 1-176); experiment: EMSA (agarose); EMSA buffer, salt, pH and temperature not given in the material; proteins purified in 20 mM Tris-HCl, 200 mM NaCl, pH 7.0
SSRP1-N, sequence (Q08945 1-176): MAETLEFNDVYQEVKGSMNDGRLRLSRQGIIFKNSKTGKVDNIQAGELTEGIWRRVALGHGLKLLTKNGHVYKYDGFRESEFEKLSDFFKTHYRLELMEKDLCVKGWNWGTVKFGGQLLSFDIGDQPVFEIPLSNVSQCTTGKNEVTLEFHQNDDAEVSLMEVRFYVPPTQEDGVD

SSRP1-C = SSRP1-C (Homo sapiens, UniProt Q08945 513-709); experiment: as above
SSRP1-C, sequence (Q08945 513-709): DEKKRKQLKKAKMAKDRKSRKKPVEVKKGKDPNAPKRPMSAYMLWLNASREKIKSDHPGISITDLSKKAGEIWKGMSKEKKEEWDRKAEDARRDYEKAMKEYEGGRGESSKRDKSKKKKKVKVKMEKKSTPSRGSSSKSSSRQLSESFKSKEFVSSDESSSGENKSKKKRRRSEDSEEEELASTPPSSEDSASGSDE

SSRP1-M [1] = biological target: T1, SSRP1-M (Homo sapiens, UniProt Q08945 196-430); experiment: EMSA (agarose and native PAGE); oligomerized complex in wells; EMSA buffer, salt, pH and temperature not given in the material; proteins purified in 20 mM Tris-HCl, 200 mM NaCl, pH 7.0
T1 sequence (Q08945 196-430): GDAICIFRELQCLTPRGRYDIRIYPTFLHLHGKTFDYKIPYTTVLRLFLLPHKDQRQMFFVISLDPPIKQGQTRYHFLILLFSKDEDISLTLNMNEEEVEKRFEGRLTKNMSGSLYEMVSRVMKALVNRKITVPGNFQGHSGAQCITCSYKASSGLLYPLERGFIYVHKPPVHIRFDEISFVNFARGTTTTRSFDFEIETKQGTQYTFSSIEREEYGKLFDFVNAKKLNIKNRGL

SSRP1-M [2] = biological target: T1, SSRP1-M; experiment: EMSA; no obvious difference from linker DNA; EMSA buffer, salt, pH and temperature not given in the material; proteins purified in 20 mM Tris-HCl, 200 mM NaCl, pH 7.0

Binder	binding result (SSRP1-N)	binding result (SSRP1-C)	binding result (SSRP1-M [1])	binding result (SSRP1-M [2])
B1	no binding	binds	binds	–
B2	–	–	–	binds
B3	–	–	–	binds
